Test [1] has as its target T1, chondroitin sulfate proteoglycan 4 (CSPG4) (human, UniProt Q6UVK1 30-2322).
T1 construct: whole, on cells; Endogenous full-length CSPG4 of human ovarian cancer cell lines, on the cell surface or in cell lysates for western blot; also called CSPG4 core protein
As to the kind of experiment: identified by the methods of Example 6 (hybridoma raised against the CSPG4 fragment).

Test [2] concerns the target T1, chondroitin sulfate proteoglycan 4 …. The test is described as follows: western blot on mock and CSPG4-CRISPR cell lysates; immunofluorescence of cells. As to the method:
FIGS. 1A-1D. Antibody 7H5A2 targets CSPG4. FIG. 1A) Amino acid sequence of recombinant protein target used to generate antibody 7H5A2 (SEQ ID NO:34). Black text denotes CSPG4 region (SEQ ID NO:33), the lighter gray text corresponds to human FC sequence for protein purification. […] Cells are harvested in lysis buffer and 40 μg protein was loaded in each well from the indicated mock and CSPG4-CRISPR cell lines. Alpha-tubulin is included as a loading control. FIG. 1D) Immunofluorescence staining of HEY parent cells with antibody 7H5A2. Red bar=10 μm. Magnification 600×.
Generation of novel CSPG4 antibody: CSPG4-specific mouse monoclonal antibody 7H5A2 was generated by Promab Biotechnologies Inc (Richmond, CA) by injection of a recombinant CSPG4 protein immunogen corresponding to aa 1538-2221 of the CSPG4 core protein extracellular domain, expressed and purified from a eukaryotic expression system (see FIG. 1A). The specificity of the antibody was determined by screening against CSPG4 wild type and knockout cell lysates via western blot and cell staining via immunofluorescence (see FIGS. 1B and 1C). 7H5A2 is isotype IgG1.

T1 sequence (Q6UVK1 30-2322): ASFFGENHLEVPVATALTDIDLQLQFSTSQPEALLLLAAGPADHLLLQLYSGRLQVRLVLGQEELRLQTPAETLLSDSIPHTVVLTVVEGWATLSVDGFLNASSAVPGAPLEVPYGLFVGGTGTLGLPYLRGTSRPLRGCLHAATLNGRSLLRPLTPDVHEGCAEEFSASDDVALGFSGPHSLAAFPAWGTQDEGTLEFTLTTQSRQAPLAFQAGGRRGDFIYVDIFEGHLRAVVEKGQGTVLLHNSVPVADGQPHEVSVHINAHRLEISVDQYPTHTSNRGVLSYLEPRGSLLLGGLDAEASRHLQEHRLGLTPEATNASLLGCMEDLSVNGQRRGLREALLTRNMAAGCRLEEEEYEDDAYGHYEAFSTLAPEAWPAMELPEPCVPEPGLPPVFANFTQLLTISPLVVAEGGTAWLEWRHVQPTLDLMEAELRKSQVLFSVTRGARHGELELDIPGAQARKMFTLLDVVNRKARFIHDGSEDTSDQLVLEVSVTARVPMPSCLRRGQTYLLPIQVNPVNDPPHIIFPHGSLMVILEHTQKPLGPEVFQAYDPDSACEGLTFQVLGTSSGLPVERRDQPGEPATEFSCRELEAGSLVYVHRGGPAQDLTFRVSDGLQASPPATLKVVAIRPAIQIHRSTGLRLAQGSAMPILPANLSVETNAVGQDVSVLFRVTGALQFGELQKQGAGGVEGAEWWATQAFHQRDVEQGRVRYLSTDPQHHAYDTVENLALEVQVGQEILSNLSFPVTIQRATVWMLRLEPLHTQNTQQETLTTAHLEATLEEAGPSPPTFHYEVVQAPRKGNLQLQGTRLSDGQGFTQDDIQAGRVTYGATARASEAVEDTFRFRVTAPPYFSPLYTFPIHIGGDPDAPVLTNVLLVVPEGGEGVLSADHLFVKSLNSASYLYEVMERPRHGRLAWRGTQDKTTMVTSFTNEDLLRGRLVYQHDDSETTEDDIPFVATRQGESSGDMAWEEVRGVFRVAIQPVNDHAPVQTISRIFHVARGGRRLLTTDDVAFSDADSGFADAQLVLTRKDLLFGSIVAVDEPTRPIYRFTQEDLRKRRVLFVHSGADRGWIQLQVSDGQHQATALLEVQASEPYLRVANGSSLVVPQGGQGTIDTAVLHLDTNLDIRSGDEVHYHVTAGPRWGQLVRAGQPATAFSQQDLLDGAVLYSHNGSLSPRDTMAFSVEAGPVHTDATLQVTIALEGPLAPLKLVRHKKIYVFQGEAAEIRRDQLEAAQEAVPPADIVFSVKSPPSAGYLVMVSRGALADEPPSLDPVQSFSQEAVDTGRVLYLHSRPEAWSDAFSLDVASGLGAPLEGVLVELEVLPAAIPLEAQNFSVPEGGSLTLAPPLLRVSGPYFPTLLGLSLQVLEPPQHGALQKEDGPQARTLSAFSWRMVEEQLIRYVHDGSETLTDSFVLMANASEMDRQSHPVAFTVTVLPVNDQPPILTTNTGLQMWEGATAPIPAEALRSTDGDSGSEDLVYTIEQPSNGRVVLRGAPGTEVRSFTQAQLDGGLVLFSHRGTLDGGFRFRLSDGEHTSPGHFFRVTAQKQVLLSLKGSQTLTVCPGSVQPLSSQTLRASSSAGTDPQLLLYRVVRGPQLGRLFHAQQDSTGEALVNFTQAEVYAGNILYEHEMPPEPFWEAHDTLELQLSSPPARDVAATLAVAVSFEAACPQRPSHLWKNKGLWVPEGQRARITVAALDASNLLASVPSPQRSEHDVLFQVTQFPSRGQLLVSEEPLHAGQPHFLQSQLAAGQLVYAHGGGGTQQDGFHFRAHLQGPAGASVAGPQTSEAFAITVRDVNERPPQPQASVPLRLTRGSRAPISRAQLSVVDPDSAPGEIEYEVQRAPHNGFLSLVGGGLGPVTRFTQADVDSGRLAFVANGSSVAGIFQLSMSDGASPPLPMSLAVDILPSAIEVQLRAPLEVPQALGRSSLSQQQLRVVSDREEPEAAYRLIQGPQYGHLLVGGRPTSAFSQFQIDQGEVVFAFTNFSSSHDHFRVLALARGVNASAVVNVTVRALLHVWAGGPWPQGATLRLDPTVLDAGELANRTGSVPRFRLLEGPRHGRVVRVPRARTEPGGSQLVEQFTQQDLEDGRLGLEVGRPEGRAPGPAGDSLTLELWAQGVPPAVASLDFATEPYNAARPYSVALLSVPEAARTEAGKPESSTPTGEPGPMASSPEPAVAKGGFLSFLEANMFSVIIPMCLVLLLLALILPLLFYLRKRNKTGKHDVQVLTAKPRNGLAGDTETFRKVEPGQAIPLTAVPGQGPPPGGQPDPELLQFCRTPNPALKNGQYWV

B1: anti-CSPG4 antibody 8G5A6 (antibody, V domains shown)
VH: EVQLQQSGPDLVKPGASVKISCKASGYSFTVYYMNWVKQSHGKSLEWIGRIDPNDGGASYNQKFKGKAILTVDKSSGTAYMELRSLTSEDSAVYYCARRDYYGSKDYWGQGTTLTVSS
VL: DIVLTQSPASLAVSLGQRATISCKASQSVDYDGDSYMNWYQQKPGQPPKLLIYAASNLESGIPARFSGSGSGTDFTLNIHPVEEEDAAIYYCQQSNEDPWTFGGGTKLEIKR
As to B1, the binding result in test [1] is “binds”.

B2: CSPG4-specific mouse monoclonal antibody 7H5A2 (antibody, IgG1, V domains shown)
VH: QVQLQQSGAELVRPGSSVKISCKASGFAFSNYWMNWVKQRPGQGLEWIGQIFPGDGDTNYNGKFKGKATLTADKSSSTAYMQLISLTSEDSAVYFCVRESDWGRGTTLTVSS
VL: DIQMTQTTSSLSASLGDRVTISCSASQGINNYLNWYQQTPDGTVKLLIFYTSSLQSGVPSRFSGSGSGTDYSLTISNLEPEDIATYYCQQYSKLPFTFGSGTKLEIKR
notes: also called anti-CSPG4 antibody 7H5A2
On to B2, for which the binding result in test [2] is given as “binds”.
